Earlier results, collected in publication PMC6005205.

Molecular target: ACKR3 (Homo sapiens) (UniProt P25106)
Chain of UniProt P25106 (P25106 whole entry): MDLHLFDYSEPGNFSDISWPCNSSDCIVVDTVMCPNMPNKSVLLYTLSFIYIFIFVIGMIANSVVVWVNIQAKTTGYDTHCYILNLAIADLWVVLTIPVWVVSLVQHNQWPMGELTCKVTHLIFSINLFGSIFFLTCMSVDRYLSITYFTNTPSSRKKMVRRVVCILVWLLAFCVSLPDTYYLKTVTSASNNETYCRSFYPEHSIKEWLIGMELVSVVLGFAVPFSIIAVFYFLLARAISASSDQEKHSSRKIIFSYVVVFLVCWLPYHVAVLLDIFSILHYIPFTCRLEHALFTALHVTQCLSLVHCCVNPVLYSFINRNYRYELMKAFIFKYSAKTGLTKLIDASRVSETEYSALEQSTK

Kd: 0.2 nM
Substance: adrenomedullin (from UniProt P35318)
